Experimental data reported in article PMC2713992 (Nature immunology, 2009).

Biological target: complement component 3b (C3b) (human, UniProt P01024 23-667; P01024 749-1663)
Assay: SPR

Sequence of complement component 3b (C3b) (P01024 23-667, chain 1 of 2): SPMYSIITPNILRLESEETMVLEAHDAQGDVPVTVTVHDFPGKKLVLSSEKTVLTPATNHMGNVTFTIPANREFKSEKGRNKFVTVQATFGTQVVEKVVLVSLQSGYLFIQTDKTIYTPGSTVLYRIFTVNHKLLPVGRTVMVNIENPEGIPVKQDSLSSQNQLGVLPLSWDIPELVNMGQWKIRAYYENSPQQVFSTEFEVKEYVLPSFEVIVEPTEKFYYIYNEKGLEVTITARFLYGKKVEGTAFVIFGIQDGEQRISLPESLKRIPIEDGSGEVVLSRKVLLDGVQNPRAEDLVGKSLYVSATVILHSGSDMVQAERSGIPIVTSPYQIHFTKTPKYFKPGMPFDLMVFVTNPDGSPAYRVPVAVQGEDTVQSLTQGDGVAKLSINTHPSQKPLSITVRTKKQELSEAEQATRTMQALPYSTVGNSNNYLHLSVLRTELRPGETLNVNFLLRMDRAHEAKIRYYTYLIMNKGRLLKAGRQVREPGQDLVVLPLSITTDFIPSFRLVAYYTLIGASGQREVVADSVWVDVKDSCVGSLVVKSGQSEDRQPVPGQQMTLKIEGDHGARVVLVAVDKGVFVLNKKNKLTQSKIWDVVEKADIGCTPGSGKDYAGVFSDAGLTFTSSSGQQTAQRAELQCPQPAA
Sequence of complement component 3b (C3b) (P01024 749-1663, chain 2 of 2): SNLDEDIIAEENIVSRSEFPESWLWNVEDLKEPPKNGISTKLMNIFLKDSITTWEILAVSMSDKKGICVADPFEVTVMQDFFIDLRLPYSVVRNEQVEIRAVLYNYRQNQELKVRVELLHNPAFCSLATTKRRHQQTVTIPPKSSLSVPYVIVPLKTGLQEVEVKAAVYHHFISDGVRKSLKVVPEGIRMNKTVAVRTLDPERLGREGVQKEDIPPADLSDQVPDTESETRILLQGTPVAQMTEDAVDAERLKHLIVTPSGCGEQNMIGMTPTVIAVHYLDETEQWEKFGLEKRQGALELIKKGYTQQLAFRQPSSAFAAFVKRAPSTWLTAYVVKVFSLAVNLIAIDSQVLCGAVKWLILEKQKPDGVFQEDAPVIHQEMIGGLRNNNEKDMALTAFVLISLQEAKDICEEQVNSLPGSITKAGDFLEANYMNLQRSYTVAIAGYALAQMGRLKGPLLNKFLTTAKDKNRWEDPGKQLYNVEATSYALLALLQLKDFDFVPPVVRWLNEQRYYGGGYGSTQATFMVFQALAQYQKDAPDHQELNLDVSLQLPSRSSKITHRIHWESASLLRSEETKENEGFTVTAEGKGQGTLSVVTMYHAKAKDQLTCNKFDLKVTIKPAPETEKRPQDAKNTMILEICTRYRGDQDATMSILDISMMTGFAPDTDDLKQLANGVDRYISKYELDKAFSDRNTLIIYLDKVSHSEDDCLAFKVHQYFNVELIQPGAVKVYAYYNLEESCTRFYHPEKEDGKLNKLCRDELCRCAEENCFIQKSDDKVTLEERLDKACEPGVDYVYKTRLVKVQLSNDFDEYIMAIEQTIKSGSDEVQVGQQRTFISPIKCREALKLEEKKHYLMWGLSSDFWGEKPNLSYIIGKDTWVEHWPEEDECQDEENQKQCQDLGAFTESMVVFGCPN

Kd: 11 ± 2 µM
stoichiometry N: 1
B1: FH(1–4), recombinant N-terminal four CCP domains (CCP1-4, residues 1–246) of human factor H (domain or fragment, UniProt P08603 19-264, looked up)
chain: EDCNELPPRRNTEILTGSWSDQTYPEGTQAIYKCRPGYRSLGNVIMVCRKGEWVALNPLRKCQKRPCGHPGDTPFGTFTLTGGNVFEYGVKAVYTCNEGYQLLGEINYRECDTDGWTNDIPICEVVKCLPVTAPENGKIVSSAMEPDREYHFGQAVRFVCNSGYKIEGDEEMHCSDDGFWSKEKPKCVEISCKSPDVINGSPISQKIIYKENERFQYKCNMGYEYSERGDAVCTESGWRPLPSCEE
